Assay results reported in US10870691B2, “Antibodies and fragments thereof that bind hepatitis B virus protein X” (priority 2018, dated 2020).
Where two headings read alike, the source gives them in different places. Ends that are not written are not given here.

Assays:
Smc6 = assay: Confocal microscopy of Smc6 in HBV-infected PHH after treatment; assay type: cell-based, human; conditions: confocal microscopy (FIGS. 8B, 10B)
Protocol: (§1) siRNA transfections were performed using Lipofectamine RNAiMax.

HBV = assay: Extracellular HBV DNA quantification (qPCR) in HBV-infected PHH; assay type: cell-based, HBV genotype D in primary human hepatocytes; conditions: siRNA 25 nM transfected or ETV treatment from day 6 post-infection (FIGS. 8A, 9A, 10A)
Protocol: PHH were infected with HBV or HBVΔX (1000 genomic equivalents/cell) or transduced with lentiviruses as described previously (Niu, et al., PLoS One (2017) 12:e0169648).
as §1
Extracellular HBeAg and HBV DNA were measured as previously described (Niu, et al., PLoS One (2017) 12:e0169648, 29). HBeAg levels were measured by enzyme-linked immunosorbent assay or electrochemiluminescence assay (Meso Scale Discovery, Rockville, Md.). Extracellular HBV DNA was purified from cell-culture medium using a DNeasy 96 Blood & Tissue Kit (Qiagen) and quantified by qPCR on a QuantStudio 7 Flex Real-Time PCR System (ThermoFisher Scientific) using primers and a probe designed to the HBx region of the HBV genome; forward primer: 5′-CCGTCTGTGCCTTCTCATCTG-3′; reverse primer: 5′-AGT CCA AGA GTY CTC TTA TGY AAG ACC TT-3′; probe: 5′/56-FAM/CCG TGT GCA/ZEN/CTT CGC TTC ACC TCT GC/3IABkFQ/3′. HBV DNA levels were normalized to β-actin.

HBx [1] = conditions: HBV-infected PHH, confocal microscopy (FIGS. 8B, 9B, 10B)
[2] = Mouse immunization with peptide-BSA conjugate; assay type: in vivo; conditions: 10 μg peptide-BSA conjugate plus 1 μg adjuvant, biweekly injections, CD-1 mice
Protocol: (§3) Two of these HBx peptides were individually conjugated to BSA and three NZB/W, three CD-1, and three BALB/c mice were immunized with 10 μg peptide-BSA conjugate plus 1 μg adjuvant (ALD and MDP in a 1:1 ratio). Biweekly injections were performed using a “rapid” immunization protocol developed by Antibody Solutions. […] The top 50 candidates were further evaluated by confocal imaging of HBV-infected PHH.

HBx [3] = target: HBx (Hepatitis B virus genotype D subtype ayw, UniProt P03165); conditions: top 50 candidates, HBV-infected PHH
Protocol: as §3

[4] = tested on: recombinant HBx-DDB1 fusion protein; assay: HBx ELISA, binding to recombinant HBx-DDB1 fusion protein; design: species or system HBV; conditions: 100 ng/mL antibody, varying concentrations of fusion protein
Protocol: Mouse monoclonal anti-HBx antibodies were developed by Antibody Solutions (Sunnyvale, Calif.). Antibody candidates were screened by enzyme-linked immunosorbent assay (ELISA) using recombinant HBx-DDB1 fusion protein and then by confocal microscopy on HBV infected PHH.
Antibody candidates were screened by ELISA. […] Signal strength was measured as absorbance at 450 nm.

HBx [5] = conditions: for detection of HBx by Western blot in PHH transduced with Myc-HBx lentivirus: Myc-tagged HBx genotype D, lysates day 3 post-transduction; for HBx genotype recognized by Western blot: PHH transduced with lentiviruses expressing HBx genotype A-E; for detection of HBx by Western blot in HBV-infected PHH: lysates day 4 post-infection
Protocol: For Western blotting experiments, PHH were transduced with Myc-HBx-expressing lentivirus or were infected with wild-type HBV, HBx-negative HBV (HBVΔX), or were mock-infected.
Western blotting was performed as previously described (Decorsière, et al., Nature (2016) 531:386-389). Briefly, PHH were transduced with a lentivirus expressing 3xMyc-HBx (HBV genotype A, B, C, D or E) or infected with wild-type HBV, HBVΔX, or mock-infected. On the indicated day post-transduction or post-infection, lysates were collected by adding 0.25 mL 1× cell lysis buffer (Cell Signaling) combined with protease inhibitor cocktail (ThermoFisher Scientific) and scraping to remove the cells from the plates. Membranes were probed with 1:250 diluted mouse monoclonal anti-Smc6 (Abgent), 1:1000 diluted mouse monoclonal c-Myc (LifeSpan Biosciences), 1:250 diluted mouse monoclonal anti-HBx mAb (15 μg/mL final concentration), and 1:2000 diluted rabbit monoclonal anti-GAPDH (Cell Signaling). IRDye 680RD goat anti-rabbit or IRDye 800CW goat anti-mouse IgG (LI-COR, Lincoln, Nebr.) at a 1:5000 dilution were used as secondary antibodies. Blots were visualized using an Odyssey Infrared Imaging System (LI-COR).

HBx69-87 peptide = HBx69-87 peptide (Hepatitis B virus genotype D subtype ayw, UniProt P03165); conditions: 100 ng/mL antibody, varying concentrations of HBx peptide
Protocol: (§2) Antibody candidates were screened by ELISA. Briefly, sulfhydryl plates were coated with 36 ng/mL recombinant HBx-DDB1 fusion protein, blocked and then incubated with 50 μL of undiluted hybridoma supernatant. Signal was detected colorimetrically with a goat anti-mouse-HRP antibody (Jackson Immuno Research, West Grove, Pa.) and incubation with TMB substrate solution (MossBio, Pasadena, Mass.). Signal strength was measured as absorbance at 450 nm. ELISA profiling of mAbs was performed using 100 ng/mL antibody with varying concentrations of recombinant HBx-DDB1 fusion protein or HBx peptide.

HBx27-50 peptide = HBx27-50 peptide (Hepatitis B virus genotype D subtype ayw, UniProt P03165); conditions: 100 ng/mL antibody, varying concentrations of HBx peptide
Protocol: as §2

HBx (Hepatitis B virus genotype D subtype ayw, UniProt P03165), sequence (P03165 whole entry, the tested form may be a part): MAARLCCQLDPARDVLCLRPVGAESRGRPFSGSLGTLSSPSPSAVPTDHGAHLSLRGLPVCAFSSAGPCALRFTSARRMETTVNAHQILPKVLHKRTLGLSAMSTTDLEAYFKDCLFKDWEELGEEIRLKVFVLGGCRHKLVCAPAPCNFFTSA

Q: Which “change in percentage of Smc6-positive cells” value (Smc6) does the source give for `C=C1[C@H](CO)[C@@H](O)C[C@@H]1n1cnc2c(=O)[nH]c(N)nc21` [ETV, entecavir] here?
A: Neither ETV nor siCtrl significantly reduced the percentage of HBx-positive cells or increased the percentage of Smc6-positive cells

Q: What about the “extracellular HBV DNA levels” value (HBV) of the same molecule?
A: significantly reduced

Q: What about the “change in percentage of HBx-positive cells” value (HBx [1]) of the same molecule?
A: Neither ETV nor siCtrl significantly reduced

Q: With “HBx27-50: HBx AD38 (genotype D) residue 27-50 peptide, conjugated to BSA for immunization (GRPFSGSLGTLSSPSPSAVPTDHG; also: conjugated to BSA)” as the molecule, how does the “immunogenicity of peptide-BSA conjugate” value [2] read?
A: immunogenic

B1: HBx M19: mouse monoclonal antibody against HBx; heavy chain SEQ ID NO: 27, light chain SEQ ID NO: 30 (Table 1) (antibody)
heavy: EVQLQQSGPELVKPGASVKISCQASGYTFTDYYMNWVKQSHGKRLEWIGDINPNNGGTAYNQKFKGKATLTVDRSSSTAYMEVRSLTSEDSAVYFCALLAYWGQGTLVTVSAAKTTPPSVYPLAPGSAAQTNSMVTLGCLVKGYFPEPVTVTWNSGSLSSGVHTFPAVLQSDLYTLSSSVTVPSSTWPSQTVTCNVAHPASSTKVDKKIVPRDCGCKPCICTVPEVSSVFIFPPKPKDVLTITLTPKVTCVVVDISKDDPEVQFSWFVDDVEVHTAQTKPREEQINSTFRSVSELPIMHQDWLNGKEFKCRVNSAAFPAPIEKTISKTKGRPKAPQVYTIPPPKEQMAKDKVSLTCMITNFFPEDITVEWQWNGQPAENYKNTQPIMDTDGSYFVYSKLNVQKSNWEAGNTFTCSVLHEGLHNHHTEKSLSHSPGK
light: DVVMTQTPLSLPVSLGDQASISCRSSQSLVYSDGNTHLHWYLQKTGQSPKLLIYKASNRFSGVPDRFSGSGSGTDFTLKISRVEAEDLGVYFCSQSTHVPLTFGAGTKLELKRADAAPTVSIFPPSSEQLTSGGASVVCFLNNFYPKDINVKWKIDGSERQNGVLNSWTDQDSKDSTYSMSSTLTLTKDEYERHNSYTCEATHKTSTSPIVKSFNRGEC
Q: What does the source list for B1?
A: selectivity and sensitivity of hybridoma clones by confocal imaging (HBx [3]): most selective and sensitive; binding to recombinant HBx-DDB1 fusion protein by ELISA [4]: bound; detection of HBx by Western blot in PHH transduced with Myc-HBx lentivirus (HBx [5]; listed as HBx mAb): detected a 17 kDa protein; detection of HBx by Western blot in PHH transduced with Myc-HBx lentivirus (HBx [5]; listed as αHBx mAb): detected; HBx genotype recognized by Western blot (HBx [5]; listed as HBx mAb): primarily recognizes genotype D HBx; HBx genotype recognized by Western blot (HBx [5]; listed as anti-HBx mAb): selective for genotype D HBx; sensitivity in Western blot analysis versus the other mAb (HBx [5]; lentivirus-expressed HBx in PHH): superior sensitivity; detection of HBx by Western blot in HBV-infected PHH (HBx [5]; listed as HBx mAb): detects a 17 kDa band; detection of HBx by Western blot in HBV-infected PHH (HBx [5]; listed as anti-HBx mAb): able to detect physiologically relevant levels of HBx protein; detection of HBx by Western blot in HBV-infected PHH (HBx [5]; listed as αHBx mAb): detected; binding to HBx69-87 control peptide by ELISA (HBx69-87 peptide): did not bind; binding to HBx27-50 peptide by ELISA (HBx27-50 peptide): potently bound
